Experimental data from patent US20240083959A1 (INSTITUTE FOR BASIC SCIENCE, published 2024).

B1: recombinant human LRG1 (leucine-rich alpha-2 glycoprotein 1), residues V36-Q347, untagged, glycosylated (ligand)
chain: VTLSPKDCQVFRSDHGSSISCQPPAEIPGYLPADTVHLAVEFFNLTHLPANLLQGASKLQELHLSSNGLESLSPEFLRPVPQLRVLDLTRNALTGLPPGLFQASATLDTLVLKENQLEVLEVSWLHGLKALGHLDLSGNRLRKLPPGLLANFTLLRTLDLGENQLETLPPDLLRGPLQLERLHLEGNKLQVLGKDLLLPQPDLRYLFLNGNKLARVAAGAFQGLRQLDMLDLSNNSLASVPEGLWASLGQPNWDMRDGFDISGNPWICDQNLSDLYRWLQAQKDKMFSQNDTRCAGPEAVKGQTLLAVAKSQ
modifications: glycosyl groups at T37 (O-linked), N79, N186, N269 and N325 (N-linked), numbered on SEQ ID NO: 1
notes: also called wild-type LRG1; wild LRG1

Columns and labels:
[1] = target: B1; test: solid-phase binding assay (ELISA), plate coated with LPHN2 ectodomain variants
Protocol: (§1) Solid phase binding analysis was performed by a known method (Mol Cancer Ther 14, 470-479 (2015)). LPHN2 extracellular domain variants (Lec, Olf, GAIN/GPS domain; 100 nM) were added to MaxiSorp 96-well plates (Nunc) and incubated at room temperature for 1 hour. The wells were washed twice with PBS and then incubated with 1% bovine serum albumen (BSA) for 2 hours. After blocking, various amounts (0.001, 0.005, 0.01, 0.05, 0.1, 0.5, 1, 5 or 10 μM) of wild-type LRG1 or DG-LRG1 were added to 96-well plates coated with the indicated LPHN2 extracellular domain variants. LRG1 bound to the coated protein was detected by ELISA using an anti-LRG1 antibody (Cat #sc517443, Santa Cruz) and a peroxidase-conjugated anti-mouse secondary antibody (Cat #62-6520, Thermo Fisher Scientific).

[2] = target: T1, recombinant Lectin-Olfactomedin-like domains of human LPHN3 (human, UniProt Q9HAR2 20-393, limits assumed); test: solid-phase binding assay (ELISA), plate coated with 100 nM Lec-Olf domain
T1 construct: domain: Lectin-Olfactomedin-like domains; also called Lec/Olf domains of LPHN3; Lec-Olf domains of LPHN3
T1 sequence (looked up): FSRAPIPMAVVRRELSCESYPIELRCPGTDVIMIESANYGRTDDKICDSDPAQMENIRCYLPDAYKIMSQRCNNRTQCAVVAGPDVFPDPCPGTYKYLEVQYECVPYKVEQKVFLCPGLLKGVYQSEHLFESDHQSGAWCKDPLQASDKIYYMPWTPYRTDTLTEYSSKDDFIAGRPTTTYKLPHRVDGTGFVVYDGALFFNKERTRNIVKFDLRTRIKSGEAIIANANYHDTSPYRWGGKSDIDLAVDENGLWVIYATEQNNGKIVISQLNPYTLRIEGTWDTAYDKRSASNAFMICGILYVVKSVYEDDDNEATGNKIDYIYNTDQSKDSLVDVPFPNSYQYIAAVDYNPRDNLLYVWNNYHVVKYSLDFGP
Protocol: (§2) FIG. 8E: results of solid phase binding assay to evaluate binding of wild-type LRG1 and DG-LRG1 to the Lec-Olf domains of LPHN1 and LPHN3. The plates were coated with Lec-Olf domains (100 nM) of LPHN1 and LPHN3. After washing and blocking, different amounts (0.001, 0.005, 0.01, 0.05, 0.1, 0.5, 1, 5 and 10 μM) of wild-type LRG1 or DG-LRG1 were added and LRG1 or DG-LRG1 bound to coated proteins were detected by ELISA using anti-LRG1 antibody and anti-mouse secondary antibody.

[3] = target: T2, recombinant Lectin-Olfactomedin-like domains of human LPHN1 (human, UniProt O94910 25-398, limits assumed); test: as above
T2 construct: domain: Lectin-Olfactomedin-like domains; also called Lec/Olf domains of LPHN1; Lec-Olf domains of LPHN1
T2 sequence (looked up): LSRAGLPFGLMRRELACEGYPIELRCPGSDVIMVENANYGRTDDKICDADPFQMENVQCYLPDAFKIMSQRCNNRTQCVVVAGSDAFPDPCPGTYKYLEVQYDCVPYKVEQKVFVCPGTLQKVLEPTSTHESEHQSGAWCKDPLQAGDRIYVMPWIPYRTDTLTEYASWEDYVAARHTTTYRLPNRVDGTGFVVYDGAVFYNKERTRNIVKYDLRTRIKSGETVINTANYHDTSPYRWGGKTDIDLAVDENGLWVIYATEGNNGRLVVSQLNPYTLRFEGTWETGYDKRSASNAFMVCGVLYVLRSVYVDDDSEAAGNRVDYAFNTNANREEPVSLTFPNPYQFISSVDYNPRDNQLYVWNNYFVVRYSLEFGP
Protocol: as §2

[4] = target: T3, recombinant human LPHN2 lectin-olfactomedin-like domain, residues F26-P394 (human, UniProt O95490 26-394); test: solid-phase binding assay (ELISA), plate coated with LPHN2 Lec/Olf domains
T3 construct: range 26-394; Coated on the plate at 100 nM; also called LPHN2 Lec/Olf domains; Lec-Olf domain
T3 sequence (looked up): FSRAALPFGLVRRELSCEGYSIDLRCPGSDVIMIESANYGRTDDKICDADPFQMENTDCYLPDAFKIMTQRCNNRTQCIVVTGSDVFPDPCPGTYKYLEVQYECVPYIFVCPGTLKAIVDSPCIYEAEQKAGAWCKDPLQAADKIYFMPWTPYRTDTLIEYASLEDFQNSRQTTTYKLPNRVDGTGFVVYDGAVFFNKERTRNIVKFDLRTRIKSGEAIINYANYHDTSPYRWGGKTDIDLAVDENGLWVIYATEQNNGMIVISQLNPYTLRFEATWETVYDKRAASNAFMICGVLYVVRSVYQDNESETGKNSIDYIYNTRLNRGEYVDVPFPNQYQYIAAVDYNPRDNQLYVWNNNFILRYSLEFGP
Protocol: as §1
Whether or not deglycosylation of LRG1 (DG-LRG1) affects the binding affinity to LPHN2 in vitro (FIG. 7B) and ex vivo (FIGS. 7C and 8C) was determined. […] Cell surface binding rates of LRG1 and DG-LRG1 in HUVEC and HEK293T cells were evaluated and verified again (Table 3, FIGS. 7C and 8C)

Binder | binding result [1] | binding result [2] | binding result [3] | Kd [4]
recombinant human LPHN2 olfactomedin-like domain, residues V135-P394 (receptor, UniProt O95490 135-394, looked up, range 135-394; Expressed with an Fc tag and released untagged with thrombin; also called Olf domain of LPHN2) VCPGTLKAIVDSPCIYEAEQKAGAWCKDPLQAADKIYFMPWTPYRTDTLIEYASLEDFQNSRQTTTYKLPNRVDGTGFVVYDGAVFFNKERTRNIVKFDLRTRIKSGEAIINYANYHDTSPYRWGGKTDIDLAVDENGLWVIYATEQNNGMIVISQLNPYTLRFEATWETVYDKRAASNAFMICGVLYVVRSVYQDNESETGKNSIDYIYNTRLNRGEYVDVPFPNQYQYIAAVDYNPRDNQLYVWNNNFILRYSLEFGP | binds | – | – | –
B1 | – | no binding (tested: 0.001 to 10 µM added) | no binding (tested: 0.001 to 10 µM added) | 920 nM
deglycosylated LRG1 (LRG1 treated with PNGase F) (ligand, N-linked glycans removed with PNGase F (sites N79, N186, N269, N325 on SEQ ID NO: 1), For FACS it was conjugated with Alexa 647; also called DG-LRG1; deglycosylated form) VTLSPKDCQVFRSDHGSSISCQPPAEIPGYLPADTVHLAVEFFNLTHLPANLLQGASKLQELHLSSNGLESLSPEFLRPVPQLRVLDLTRNALTGLPPGLFQASATLDTLVLKENQLEVLEVSWLHGLKALGHLDLSGNRLRKLPPGLLANFTLLRTLDLGENQLETLPPDLLRGPLQLERLHLEGNKLQVLGKDLLLPQPDLRYLFLNGNKLARVAAGAFQGLRQLDMLDLSNNSLASVPEGLWASLGQPNWDMRDGFDISGNPWICDQNLSDLYRWLQAQKDKMFSQNDTRCAGPEAVKGQTLLAVAKSQ | – | no binding (tested: 0.001 to 10 µM added) | no binding (tested: 0.001 to 10 µM added) | 450 nM
